Laboratory results: paper PMC13167113

Legend:
[1] = target: CXCR4 endogenous on cells (human (endogenous in Daudi and Jurkat)) (UniProt P61073)
[2] = target: CXCR4 endogenous on cells (human (endogenous in Daudi and Jurkat)) (UniProt P61073); remark: listed apart in the source

Sequence of UniProt P61073 (P61073 whole entry): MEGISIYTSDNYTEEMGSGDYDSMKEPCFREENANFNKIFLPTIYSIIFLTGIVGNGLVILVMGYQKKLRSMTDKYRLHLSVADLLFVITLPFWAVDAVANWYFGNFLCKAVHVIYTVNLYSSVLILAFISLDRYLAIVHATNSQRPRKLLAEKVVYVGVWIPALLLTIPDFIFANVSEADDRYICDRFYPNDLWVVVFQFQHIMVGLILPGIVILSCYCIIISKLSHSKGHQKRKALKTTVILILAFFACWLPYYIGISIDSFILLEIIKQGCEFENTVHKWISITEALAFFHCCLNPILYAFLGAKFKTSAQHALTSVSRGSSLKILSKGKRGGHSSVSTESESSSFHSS

“X4 HIV-1 Env (gp120 and gp41) of HXB2 on virus-like particles (from UniProt P04578 33-511; P04578 512-856) (complex)” was tested, and the SPT-TIRF: percentage of CXCR4-AcGFP particles that are nanoclusters (≥3 receptors/particle) on JKCD4+X4- cells on gp120-VLP-coated coverslips (basal ∼1%; Env(-) VLPs ∼9%) [1] was 29%.
“recombinant X4 HIV-1 gp120 (residues 31-507, isolate HXB2) with a C-terminal histidine tag (from UniProt P04578 31-507) (domain or fragment)” showed an SPT-TIRF: percentage of CXCR4-AcGFP particles that are nanoclusters (≥3 receptors/particle) on JKCD4+X4- cells on X4-gp120-coated coverslips (basal ∼2%) [2] of 18%.
